Experimental data as given in PMC5597967, “14-3-3 Regulates Actin Filament Formation in the Deep-Branching Eukaryote Giardia lamblia” (mSphere, 2017).

Biological target: the molecule itself
Assay: native gel or EMSA; TS-actin and associated proteins purified on StrepTactin resin, eluted with 2 mM biotin, run at once on 4 to 16% native PAGE and blotted; with and without DSP cross-linking of cells before lysis; input also run

B1: Gl-14-3-3–HA (endogenously 3×HA C-terminally tagged Gl-14-3-3) (natural protein, Giardia lamblia, UniProt E2RU97 1-248, looked up)
chain: MAEAFTREDYVFMAQLNENAERYDEMVETMRKISGMEGELSDKERNLLSVAYKNVIGPRRAAWRIVSSIEAKEKGRQKPNAKRIEQIRVYRQKIEKELSDICNDILKLLQEQFVPRSTNADAKVFYYKMQGDYYRYLAEYSSGEDKEKIAGSALNAYNSAFEISQQLPPTHPIRLGLALNFSVFYYEILASPDRACELARKAFDAAITDLDKLTEESYKDSTLIMQLLRDNLNLWVTDSAGDDNAEEK
notes: Giardia lamblia 14-3-3 (Gl-14-3-3), the single 14-3-3 homolog, GL50803_6430; source: Giardia trophozoites, endogenously tagged (integrated copy), in lysate; not shown: 3xHA, C-terminal, kept
stoichiometry N: 2
